Molecular target: Bovine pancreatic trypsin inhibitor, reduced form, P00974

B1: GST-Pdia4 (protein)
chain: VAGAEGPDEDSSNRENAIEDEEEEEEEDDDEEEDDLEVKEENGVLVLNDANFDNFVADKDTVLLEFYAPWCGHCKQFAPEYEKIANILKDKDPPIPVAKIDATSASVLASRFDVSGYPTIKILKKGQAVDYEGSRTQEEIVAKVREVSQPDWTPPPEVTLVLTKENFDEVVNDADIILVEFYAPWCGHCKKLAPEYEKAAKELSKRSPPIPLAKVDATAETDLAKRFDVSGYPTLKIFRKGRPYDYNGPREKYGIVDYMIEQSGPPSKEILTLKQVQEFLKDGDDVIIIGVFKGESDPAYQQYQDAANNLREDYKFHHTFSTEIAKFLKVSQGQLVVMQPEKFQSKYEPRSHMMDVQGSTQDSAIKDFVLKYALPLVGHRKVSNDAKRYTRRPLVVVYYSVDFSFDYRAATQFWRSKVLEVAKDFPEYTFAIADEEDYAGEVKDLGLSESGEDVNAAILDESGKKFAMEPEEFDSDTLREFVTAFKKGKLKPVIKSQPVPKNNKGPVKVVVGKTFDSIVMDPKKDVLIEFYAPWCGHCKQLEPVYNSLAKKYKGQKGLVIAKMDATANDVPSDRYKVEGFPTIYFAPSGDKKNPVKFEGGDRDLEHLSKFIEEHATKLSRTKEEL
B1 was tested, and the “disulfide isomerase activity, fraction remaining (%) of the reduced BPTI” value was “GST-Pdia4 showed disulfide isomerase activity as compared to GST protein in redox buffer as evidenced by a decrease in disulfide formation of bovine pancreatic trypsin inhibitor”.

From US20110280809
